Measured values as given in US9144594B2, “Cathepsin L mediated diseases and associated methods and products” (University of Miami, priority 2005, dated 2015).

What was measured:
[1] = tested on: LPS induced mouse proteinuria model; test: LPS induced mouse proteinuria model, protein in urine (prevention and reversal by dynamin gene delivery); type: in vivo; details: Table 5 Reversal, 2xLPS
Method: Next, it was examined whether gene transfer of dynR725A and dynL356Q, G358V was able to protect from LPS induced changes of podocyte FP and thus proteinuria (FIGS. 6A-B); (Table 2B). […] Whereas the application of wildtype dynamin was unable to protect from LPS induced podocyte FP effacement (data not shown) and proteinuria (0.63 mg/ml after 24 hours, p<0.05 and 1.18 mg/ml after 48 hours, p<0.04); table 2B, the co-administration of R725A together with LPS completely abolished the development of proteinuria after 24 hours (0.20 mg/ml). Podocyte FPs remained normal at this timepoint (FIG. 6B). The decline of R725A expression in podocytes was then associated with the development of proteinuria (1.25 mg/ml, 48 h). At this time point, there was noticeable podocyte FP effacement. The application of the cathepsin L resistant dynamin mutant L356Q, G358V together with LPS conferred a partial protection from proteinuria (0.47 mg/ml, P<0.05). This protection was associated with normal appearing podocyte FP (FIG. 6C). Although this protection was not as strong as the one provided by dynR725A, it was prolonged and was still present even after the second dose of LPS ([…], P<0.04). This observation argues that lower expression levels of dynL356Q, G358V are required to protect from LPS induced FP effacement but the presence of dynR725A has the most powerful protection.
Another set of experiments was carried out to study whether dynR725A and dynL356Q, G358V are also useful once there is already established podocyte damage and proteinuria (reversal experiments), (FIGS. 6C, D); (Table 2C). First LPS was injected in mice at 0 and 24 hours and the course of urinary protein loss was documented. On the peak phase of proteinuria at 48 hours after the first LPS injection, either delivery solution (control), dynR725A or dynL356Q, G358V dynamin mutants were transferred and the morphology of podocyte FP was analyzed and the degree of proteinuria was determined 10 hours later when there was strong expression of the transferred gene in podocytes. […] A dramatic reformation of podocyte FPs was also observed (FIG. 6C). The same observation was true for L356Q, G358V (FIG. 6D) which was able to reduce proteinuria from 1.20 mg/ml to 0.71 mg/ml). From the in vitro data it was determined that R725A starts to self assemble into higher order structures in the LPS setting which render dynamin assembly domain protected from cathepsin L cleavage. […] In addition, dominant activating dynR725A proves useful because despite causing podocyte damage in wildtype mice, it can resist cathepsin L cleavage by self assembly in the LPS setting and have strong activity by impairment in its GTP hydrolysis.
If dynamin is a target of CatL, then dynL356Q and dynR725A, which are resistant to CatL cleavage, might protect kidneys from LPS. In control mice, two injections of LPS led to FP effacement (FIG. 21C) and a large increase in proteinuria (FIG. 21E, Con).
Next it was examined whether dynL356Q and dynR725A can reverse already established proteinuria. LPS was injected into mice at 0 and 24 hours. At the peak of proteinuria at 48 hours, mice were injected with dynWT, dynL356Q, or dynR725A, and the degree of proteinuria was analyzed 12 hours post injection. […] The rescue could be achieved with both podocin and CMV-driven protein expression.
All animal studies were approved by the MGH Subcommittee for Research Animal Care. C57BL6 mice were obtained from Jackson Laboratory (Bar Harbor, Me.). CatL−/− mice are in a pure C57BL6 background (Nakagawa et al., Science 280, 450-453 (1998)). LPS induced mouse proteinuria model was utilized as previously described (Reiser et al., J Clin Invest 113, 1390-1397 (2004)). Rat PAN nephrosis model was induced by a single intravenous injection of PAN (180 mg/kg body wt; Sigma-Aldrich, St. Louis, Mo.) (Kim et al., Am J Physiol Renal Physiol 286, F922-935 (2004)). […]

[2] = tested on: mice; test: Protein in urine after in vivo gene delivery of dynamin mutants into healthy mice (Bradford); parameters: species or system mouse; details: Table 5 Basic Phenotype, podocin-driven vectors
Method: Next, the level of urinary protein loss following gene delivery of dynamin mutants was examined (Table 2). […] The expression of K44A was associated with severe proteinuria (1.18 mg/ml) at peak gene expression time of 10 hours post injection. The reduction in gene expression was paralleled by a reduction in proteinuria (0.77 mg/ml). Gene transfer of dynR725A caused an increase in proteinuria (0.58 mg/ml). Although this was not a significant increase, it is probable that it is a consequence of the partial podocyte FP effacement seen after gene transfer of dynR725A, and due to increase in the stress fibers formation observed in cultured podocytes.
To explore whether functional dynamin is required for the maintenance of FP morphology in healthy kidneys, it was examined whether expression of dominant negative dynK44A disrupts podocyte function. […] In contrast, podocin driven expression of dynK44A, the dynamin mutant that cannot bind GTP, caused FP effacement (FIG. 21B) and proteinuria (1.1±0.26 mg/ml) at the peak of gene expression […] after gene delivery (FIGS. 21D and 25C). […] In other words, tight regulation of the life-time of the GTP-bound form of dynamin appears to be required for normal FP morphology and ultrafiltration.
CatL plasmids encoding short and long CatL (Goulet et al., Biol Chem 387, 1285-1293 (2004)), Dyn1 plasmids (pcDNA-driven) or p2.5 Podocin-driven (Moeller et al., Genesis 35, 39-42 (2003)) were introduced into mice (n>10, each construct) using the TransIT in vivo gene delivery system according to the manufacturer's instruction (Mirus Bio Corporation, Madison, Wis.). 10 and 24 h after gene delivery, proteinuria was assessed by Multistix 8 SG strips (Bayer Corporation, Elkhart, Ind.), and Bradford protein assay (Sigma, Saint Louis, Mo.). From the same urines the protein creatinine ratio was determined with Albuwell M and Creatinine Companion protein creatinine ELISA kits (Exocell Inc., Philadelphia, Pa.).

B1: R725A (podo): podocin promoter-driven dynR725A vector, gene delivery (protein, UniProt Q05193 1-864, looked up, variant R725A)
Dynamin-1: MGNRGMEDLIPLVNRLQDAFSAIGQNADLDLPQIAVVGGQSAGKSSVLENFVGRDFLPRGSGIVTRRPLVLQLVNATTEYAEFLHCKGKKFTDFEEVRLEIEAETDRVTGTNKGISPVPINLRVYSPHVLNLTLVDLPGMTKVPVGDQPPDIEFQIRDMLMQFVTKENCLILAVSPANSDLANSDALKVAKEVDPQGQRTIGVITKLDLMDEGTDARDVLENKLLPLRRGYIGVVNRSQKDIDGKKDITAALAAERKFFLSHPSYRHLADRMGTPYLQKVLNQQLTNHIRDTLPGLRNKLQSQLLSIEKEVEEYKNFRPDDPARKTKALLQMVQQFAVDFEKRIEGSGDQIDTYELSGGARINRIFHERFPFELVKMEFDEKELRREISYAIKNIHGIRTGLFTPDMAFETIVKKQVKKIREPCLKCVDMVISELISTVRQCTKKLQQYPRLREEMERIVTTHIREREGRTKEQVMLLIDIELAYMNTNHEDFIGFANAQQRSNQMNKKKTSGNQDEILVIRKGWLTINNIGIMKGGSKEYWFVLTAENLSWYKDDEEKEKKYMLSVDNLKLRDVEKGFMSSKHIFALFNTEQRNVYKDYRQLELACETQEEVDSWKASFLRAGVYPERVGDKEKASETEENGSDSFMHSMDPQLERQVETIRNLVDSYMAIVNKTVRDLMPKTIMHLMINNTKEFIFSELLANLYSCGDQNTLMEESAEQAQRADEMLRMYHALKEALSIIGDINTTTVSTPMPPPVDDSWLQVQSVPAGRRSPTSSPTPQRRAPAVPPARPGSRGPAPGPPPAGSALGGAPPVPSRPGASPDPFGPPPQVPSRPNRAPPGVPSRSGQASPSRPESPRPPFDL
modifications: podocin promoter vector
notes: podocin promoter-driven dynR725A vector, gene delivery
Protein in the urine ([1]; t = 0): 0.23 ± 0.07 mg/mL | Protein in the urine ([1]; t = 48 h): 1.26 ± 0.34 mg/mL | Protein in the urine ([1]; t = 58 h): 0.49 ± 0.23 (1.6 × 10^−4) mg/ml | Protein in the urine ([2]; t = 0): 0.29 ± 0.10 mg/mL | Protein in the urine ([2]; t = 14 h): 0.79 ± 0.22 (4.4 × 10^−5) mg/ml | Protein in the urine ([2]; t = 24 h): 0.45 ± 0.18 (3.6 × 10^−2) mg/ml

B2: L356Q (podo): podocin promoter-driven dynL356Q vector, gene delivery (protein, UniProt Q05193 1-864, looked up, variant L356Q)
Dynamin-1: MGNRGMEDLIPLVNRLQDAFSAIGQNADLDLPQIAVVGGQSAGKSSVLENFVGRDFLPRGSGIVTRRPLVLQLVNATTEYAEFLHCKGKKFTDFEEVRLEIEAETDRVTGTNKGISPVPINLRVYSPHVLNLTLVDLPGMTKVPVGDQPPDIEFQIRDMLMQFVTKENCLILAVSPANSDLANSDALKVAKEVDPQGQRTIGVITKLDLMDEGTDARDVLENKLLPLRRGYIGVVNRSQKDIDGKKDITAALAAERKFFLSHPSYRHLADRMGTPYLQKVLNQQLTNHIRDTLPGLRNKLQSQLLSIEKEVEEYKNFRPDDPARKTKALLQMVQQFAVDFEKRIEGSGDQIDTYEQSGGARINRIFHERFPFELVKMEFDEKELRREISYAIKNIHGIRTGLFTPDMAFETIVKKQVKKIREPCLKCVDMVISELISTVRQCTKKLQQYPRLREEMERIVTTHIREREGRTKEQVMLLIDIELAYMNTNHEDFIGFANAQQRSNQMNKKKTSGNQDEILVIRKGWLTINNIGIMKGGSKEYWFVLTAENLSWYKDDEEKEKKYMLSVDNLKLRDVEKGFMSSKHIFALFNTEQRNVYKDYRQLELACETQEEVDSWKASFLRAGVYPERVGDKEKASETEENGSDSFMHSMDPQLERQVETIRNLVDSYMAIVNKTVRDLMPKTIMHLMINNTKEFIFSELLANLYSCGDQNTLMEESAEQAQRRDEMLRMYHALKEALSIIGDINTTTVSTPMPPPVDDSWLQVQSVPAGRRSPTSSPTPQRRAPAVPPARPGSRGPAPGPPPAGSALGGAPPVPSRPGASPDPFGPPPQVPSRPNRAPPGVPSRSGQASPSRPESPRPPFDL
modifications: podocin promoter vector
notes: podocin promoter-driven dynL356Q vector, gene delivery
Protein in the urine ([1]; t = 0): 0.29 ± 0.05 mg/mL | Protein in the urine ([1]; t = 48 h): 1.36 ± 0.49 mg/mL | Protein in the urine ([1]; t = 58 h): 0.73 ± 0.29 (6.9 × 10^−3) mg/ml | Protein in the urine ([2]; t = 0): 0.24 ± 0.05 mg/mL | Protein in the urine ([2]; t = 14 h): 0.45 ± 0.12 (2.5 × 10^−3) mg/ml | Protein in the urine ([2]; t = 24 h): 0.35 ± 0.018 mg/mL
